Assay results taken from patent US20180284130A1.

Experiments:
obinutuzumab (GAZYVA) [1] = test: ELISA; mAb at 1000 and 315 ng/ml captured, ratio of A450 obinutuzumab/rituximab (FIG. 8H)
obinutuzumab (GAZYVA) [2] = test: ELISA; mAb captured by F(ab')2 anti-human F(ab')2, biotinylated dimer, streptavidin-HRP (FIG. 8C)
rituximab [3] = test: flow cytometry; CD19 B cells in PBMC opsonised with 2.5 µg/ml rituximab, dimer 0.2 µg/ml (FIG. 14F)
[4] = target: recombinant human anti-TNP IgG2 (chimeric, TIB142 VH with human IgG2 constant region) (human) [IgG part: P01859]; test: ELISA; anti-TNP IgG on TNP-BSA, biotinylated dimer; EC50 as IgG concentration (FIG. 3 D, L)
rituximab [5] = test: flow cytometry; CD19 B cells in PBMC opsonised with 2.5 µg/ml rituximab, dimer 0.2 µg/ml (FIG. 14E)

## Human rsFcγRIIIa F158 dimer (receptor)
Obinutuzumab (GAZYVA) [1]
  binding preference over rituximab: 10 fold
Obinutuzumab (GAZYVA) [2]
  binding preference over rituximab: 20 fold

## Human rsFcγRIIIa V158 dimer (receptor)
Rituximab [3]
  median fluorescence intensity (MFI): 11000 MFI

## Human rsFcγRIIa H131 dimer (from UniProt P12318 34-215) (receptor)
[4]
  EC50: 0.3 µg/mL
Rituximab [5]
  median fluorescence intensity (MFI): 4000 MFI
